Publication PMC8294851

Tests used:
[1] = target: Neuronal SNARE complex (VAMP2 on nanolipoprotein particles with flipped t-SNAREs Syntaxin-1 and SNAP-25 on tCells) (not stated | rat) (UniProt P63045)
[2] = target: Neuronal SNARE complex (VAMP2 on nanolipoprotein particles with flipped t-SNAREs Syntaxin-1 and SNAP-25 on tCells) (not stated | rat) (UniProt P63045); remark: listed apart in the source
[3] = target: Neuronal SNARE complex (VAMP2 on nanolipoprotein particles with flipped t-SNAREs Syntaxin-1 and SNAP-25 on tCells) (not stated | rat) (UniProt P63045); remark: listed apart in the source

Sequence of UniProt P63045 (P63045 whole entry, chain 1 of 3): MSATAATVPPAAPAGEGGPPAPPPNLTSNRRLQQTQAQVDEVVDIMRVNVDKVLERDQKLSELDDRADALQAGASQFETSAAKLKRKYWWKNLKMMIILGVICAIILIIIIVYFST
Sequence of UniProt P63045 (P32851 186-288, chain 2 of 3, further chain): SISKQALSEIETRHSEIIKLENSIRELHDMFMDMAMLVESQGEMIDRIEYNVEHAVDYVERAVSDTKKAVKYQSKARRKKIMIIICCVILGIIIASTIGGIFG
Sequence of UniProt P63045 (P60881 2-206, chain 3 of 3, further chain): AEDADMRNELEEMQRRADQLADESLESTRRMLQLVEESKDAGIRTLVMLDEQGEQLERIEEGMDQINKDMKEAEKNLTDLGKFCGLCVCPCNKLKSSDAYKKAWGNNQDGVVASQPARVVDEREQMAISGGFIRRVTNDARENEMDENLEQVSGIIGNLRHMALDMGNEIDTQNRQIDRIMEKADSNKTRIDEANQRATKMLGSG

Q: With “Synaptotagmin-1 soluble C2AB domains (rat Syt1 residues 96-421) (from UniProt P21707 96-421) (domain or fragment)” as the substance, how does the mean single fusion pore conductance, 10 μM soluble C2AB with VAMP2 NLPs and flipped t-SNARE cells, 100 μM calcium and exogenous PI(4,5)P2, compared to no Syt1 [1] read?
A: 3 fold

Q: “Full-length Synaptotagmin-1 (pET28a-SUMO-synaptotagmin 1, residues 57-421), reconstituted into nanolipoprotein particles (from UniProt P21707 57-421) (natural protein)” was tested. Which mean single-pore conductance, fusion of NLPs carrying Syt1 and VAMP2 with flipped t-SNARE cells pre-incubated with diC8PI(4,5)P2, compared to SNARE-alone fusion [2] did it give?
A: 3 fold

Q: How did the mean single open-pore conductance, mutant C2AB with VAMP2 NLPs and flipped t-SNARE cells, 100 μM free calcium and exogenous PI(4,5)P2, compared to wild-type C2AB [3] turn out when “Synaptotagmin-1 C2AB R398Q, R399Q (from UniProt P21707 96-421) (domain or fragment)” was run?
A: 3 fold smaller
